Test results from US20110166063A1 (priority 2008, published 2011).
pEC50: −log10 of the molar value. Several values for one entry are separate records, joined by “and”; a condition that tells them apart may be missing. Equal values may be shown once. Read-outs that look alike come from different tables or passages of the source. Marks after values point to notes of the source that are not given here. Ends that are not written are not given here.

Legend:
rat red blood cells [1] = assay: Hemolysis assay, protegrin-1 series; assay type: cell-based; settings: for hemolytic effect: rat red blood cells, 37° C., relative to 0.25% Triton X-100
Description: Approximately 10 mL of blood was drawn from one adult rat into Na Heparin tube and kept in ice until use. Red blood cells were washed three times with 10 mL of cold DPBS ((−) CaCl2 and (−) MgCl2) and collected by sequential centrifugation at 3,000 g for 5 min at 4° C. Pellets of red blood cells were resuspended with DPBS ((−) CaCl2 and (−) MgCl2) and the total volume was brought up to initial volume of blood drawn. One mL of resuspended red blood cells was resuspended with 49 mL of DPBS ((−) CaCl2 and (−) MgCl2). Incubation mixture was prepared by 400 fold dilution of stock solution of test compounds with final volume of 800 μl. Final concentration of test compounds was equimolar to that of respective unconjugated compounds. Hemolysis incubation was done at 37° C. with mild agitation. For releasable conjugates, test compounds were preincubated in 1×PBS at 37° C. prior to hemolysis assay. Incubation mixture was centrifuged at 3,000 g for 5 min at 4° C., and the absorbance at 550 nm was read from supernatant.

[2] = Pharmacokinetic study of protegrin conjugates, single IV dose in rats; assay type: in vivo, Sprague-Dawley rats; settings: […] equivalent protein mass IV
Description: The weight range of the animals was 313-346 grams. All animals were food fasted overnight.
Following the last collection point, the animals were euthanized. Bioanalytical analysis: analysis of the plasma samples was conducted using non-validated LC-MS/MS methods.

human δ opioid receptor = human δ opioid receptor (Homo sapiens, UniProt P41143); assay: Radioligand competition binding assay, biphalin series, δ opioid receptor
Description: (§1) Competition binding experiments were conducted by incubating membrane protein to equilibrium in triplicate in the presence of a fixed concentration of radioligand and increasing concentrations (0.1 nM to 10 μM) of test compound in 100 μL final volume. The radioligands used were specific for each receptor type, and the assay conditions are described in Table BIP6.3. Following incubations, the membranes were rapidly filtered through GF/B filter plate (presoaked with 0.5% polyethyleneimine), washed four times with cold 50 mM Tris-HCl, pH 7.5, and the bound radioactivity was then measured. Non-specific binding was measured in the presence of excess naloxone (100 μM); this value was subtracted from the total binding to yield the specific binding at each test concentration.
(§2) The test compounds were stored under acidic condition to stabilize the PEG conjugation.
(§3) Ki (affinity of test compound) was obtained using the Cheng Prusoff correction using experimental Kd (affinity of radioligand) values that were previously determined under these assay conditions.

human μ opioid receptor = human μ opioid receptor (Homo sapiens, UniProt P35372); assay: Radioligand competition binding assay, biphalin series, μ opioid receptor
Description: as §1, §2, §3

[3] = Pharmacokinetic study of V681 (V13AD) conjugates, single IV dose in rats; assay type: in vivo, Sprague-Dawley rats; settings: 1.0 mg/kg equivalent protein mass IV
Source text: The weight range of the animals was 311-346 grams. All animals were food fasted overnight. […] The predose sample was collected from the JVC.
Following the last collection point, the animals were euthanized.

rat red blood cells [4] = assay: Hemolysis assay, V681(V13AD) series; assay type: cell-based; settings: 37° C., relative to 0.25% Triton X-100
Description: Hemolysis assay. Approximately 10 mL of blood was drawn from one adult rat into Na Heparin tube and kept in ice until use. Red blood cells were washed three times with 10 mL of cold DPBS ((−) CaCl2 and (−) MgCl2) and collected by sequential centrifugation at 3,000 g for 5 min at 4° C. Pellets of red blood cells were resuspended with DPBS ((−) CaCl2 and (−) MgCl2) and the total volume was brought up to initial volume of blood drawn. One mL of resuspended red blood cells was resuspended with 49 mL of DPBS ((−) CaCl2 and (−) MgCl2). Incubation mixture was prepared by 400 fold dilution of stock solution of test compounds with final volume of 800 μl. Final concentration of test compounds was equimolar to that of respective unconjugated compounds. Hemolysis incubation was done at 37° C. with mild agitation.
For releasable conjugates, test compounds were preincubated in 1×PBS at 37° C. prior to hemolysis assay. Incubation mixture was centrifuged at 3,000 g for 5 min at 4° C., and the absorbance at 550 nm was read from supernatant.

[5] = due to rapid proteolysis and glomerular filtration; cited from earlier work
[6] = OGF release rate and stability of OGF; assay type: physicochemical; settings: 160 hours at 37° C., pH 7.5 and 16 hours at 37° C., pH 10.0
[7] = pH 5
[8] = assay type: physicochemical
[9] = target: T1, GPR54 G-Protein coupled receptor (Homo sapiens, UniProt Q969F8); assay: FLIPR calcium flux agonist assay on GPR54; assay type: cell-based; settings: no release incubation
T1 construct: host or cells: Chem-1 host cells

[10] = protegrin-1 in plasma (released or native)
[11] = test compound in plasma (non-releasable conjugates, native PG-1), Mean ± SD
[12] = Pre-incubated in assay buffer pH 7.5 at 37° C. (72 h biphalin and di-CAC; 20 h di-C2 and di-SBC)
[13] = sample diluted on the day of the assay (unreleased)

Chain of human μ opioid receptor (P35372 whole entry): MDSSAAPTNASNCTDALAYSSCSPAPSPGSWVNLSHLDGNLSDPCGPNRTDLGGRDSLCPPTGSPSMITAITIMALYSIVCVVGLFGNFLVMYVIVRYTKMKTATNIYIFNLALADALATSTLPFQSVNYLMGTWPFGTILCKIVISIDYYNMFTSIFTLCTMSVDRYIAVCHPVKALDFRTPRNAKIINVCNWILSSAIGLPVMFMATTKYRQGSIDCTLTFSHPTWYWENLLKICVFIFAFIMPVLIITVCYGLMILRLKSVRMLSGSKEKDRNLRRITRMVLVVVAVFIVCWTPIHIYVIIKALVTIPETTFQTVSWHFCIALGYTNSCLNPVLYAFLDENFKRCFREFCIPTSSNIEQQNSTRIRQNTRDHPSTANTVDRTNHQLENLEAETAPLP
T1 sequence (Q969F8 whole entry): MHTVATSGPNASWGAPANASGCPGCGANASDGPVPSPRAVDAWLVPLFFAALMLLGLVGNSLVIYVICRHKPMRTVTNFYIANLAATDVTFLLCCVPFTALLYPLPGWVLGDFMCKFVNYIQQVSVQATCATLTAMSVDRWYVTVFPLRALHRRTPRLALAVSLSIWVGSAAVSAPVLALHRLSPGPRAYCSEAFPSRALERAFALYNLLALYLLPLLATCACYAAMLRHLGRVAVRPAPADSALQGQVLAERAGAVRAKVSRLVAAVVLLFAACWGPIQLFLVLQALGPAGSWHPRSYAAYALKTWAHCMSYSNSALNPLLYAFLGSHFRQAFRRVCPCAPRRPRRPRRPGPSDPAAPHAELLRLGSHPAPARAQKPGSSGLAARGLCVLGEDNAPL
Chain of human δ opioid receptor (P41143 whole entry): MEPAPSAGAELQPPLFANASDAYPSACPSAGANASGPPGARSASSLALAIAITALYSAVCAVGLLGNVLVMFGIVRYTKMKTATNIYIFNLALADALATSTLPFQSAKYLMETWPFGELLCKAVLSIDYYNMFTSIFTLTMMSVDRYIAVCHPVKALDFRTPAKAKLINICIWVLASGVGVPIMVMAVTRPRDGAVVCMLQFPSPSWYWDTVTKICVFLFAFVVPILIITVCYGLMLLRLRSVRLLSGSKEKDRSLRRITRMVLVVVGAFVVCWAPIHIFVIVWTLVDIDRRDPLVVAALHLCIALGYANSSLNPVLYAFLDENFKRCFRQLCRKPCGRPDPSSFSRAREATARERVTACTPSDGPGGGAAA

Compound: mono-[mPEG2-CAC-FMOC-40K]-[PG-1] (RGGRLCYCRRRFCVCVGR-NH2; cysteine pairing not given here; also: releasable CAC-PEG2-FMOC 40K PEG, mono-conjugate, site not given here; UniProt P32194 131-148, looked up) [CAC-PEG2-FMOC-40K-PG-1, PG1 conjugate with a releasable linker]
- hemolytic effects relative to that from PG1 (rat red blood cells [1]; conjugate preincubated for 96 hr in 1XPBS at 37° C.): 60-70%
- T1/2 (hr) [2, 10]: 0.13* hr
- Tmax [2, 10]: 1.8 min

Compound: (SPA-2K)2-biphalin [Di-mPEG-SPA-2K-biphalin]
- inhibition of specific binding at the highest test concentration (human δ opioid receptor; 10 μM): no measurable inhibition
- inhibition of specific binding at the highest test concentration (human μ opioid receptor; 10 μM): no measurable inhibition

Compound: [Protegrin-1]-[PEG-di-ButyrAldehyde-5K]-[Protegrin-1] (RGGRLCYCRRRFCVCVGR-NH2; cysteine pairing not given here; also: two peptide copies linked by PEG-dibutyraldehyde 5K; UniProt P32194 131-148, looked up) [PG-1-PEG-5K-PG-1]
- hemolytic effect (rat red blood cells [1]; listed as PG1-ButyrALD-5K-PG1): little hemolytic activity
- hemolytic effect (rat red blood cells [1]; listed as PG1-ButyrALD-PG1): almost eliminated
- CL [2, 11]: 2.25 ± 0.154 mL/min/kg
- T1/2 [2, 11]: 6.8 ± 0.65 h
- Vss [2, 11]: 0.248 ± 0.0221 L/kg

Compound: (CAC-20K)2-biphalin [Di-CAC-PEG2-FMOC-NHS-20K-biphalin]
- Ki (human μ opioid receptor; [12]): 13.7 nM
- Ki (human μ opioid receptor; [13]): 1120 nM

Compound: [mono]-[mPEG-SMB-30K]-[V681(V13AD)] [SMB-30K-V681 (V13AD)]
- AUCINF [3]: 158 ± 43 µg·h/mL
- CL [3]: 0.11 ± 0.0267 mL/min/kg
- Cmax [3]: 4380 ± 505 ng/mL
- MRT [3]: 38.3 ± 18.2 h
- T1/2 [3]: 26.6 ± 12.5 h
- Vss [3]: 0.235 ± 0.05 L/kg
- mean AUC as multiple of V681 (V13AD) [3]: 123 times
- hemolytic effects (rat red blood cells [4]): almost eliminated

Compound: GHRH: growth hormone releasing hormone, stimulates growth hormone secretion from the anterior pituitary gland
- half-life [5]: 0.167 to 0.333 h

Compound: (C2-20K)2-biphalin [Di-C2-PEG2-FMOC-NHS-20K-biphalin]
- Ki (human μ opioid receptor; [12]): 10.1 nM
- Ki (human μ opioid receptor; [13]): 21.7 nM

Compound: CSCC[C@H](NC(=O)[C@H](Cc1ccccc1)NC(=O)CNC(=O)CNC(=O)[C@@H](N)Cc1ccc(O)cc1)C(=O)O [OGF, Opioid Growth Factor]
- stability of the peptide following pre-incubation [6]: remained stable

Compound: (SBC-30K)2-biphalin [Di-mPEG-SBC-30K-biphalin]
- Ki (nM), δ Opioid Receptor (human δ opioid receptor; [12]): not obtained

Compound: [mono]-[mPEG2-20K]-[V681(V13AD)] [NHS-20K-V681 (V13AD)]
- AUCINF [3]: 53.0 ± 1.1 µg·h/mL
- CL [3]: 0.315 ± 0.0065 mL/min/kg
- Cmax [3]: 5210 ± 211 ng/mL
- MRT [3]: 7.6 ± 1.1 h
- T1/2 [3]: 5.8 ± 1.0 h
- Vss [3]: 0.143 ± 0.0237 L/kg
- mean AUC as multiple of V681 (V13AD) [3]: 24 times
- hemolytic effects (rat red blood cells [4]): almost eliminated

Compound: mono-mPEG-SBC-30K-ziconotide [SBC-ziconotide conjugate]
- stability of the conjugate [7]: very unstable

Compound: C[C@@H](NC(=O)[C@@H](N)Cc1ccc(O)cc1)C(=O)NCC(=O)N[C@@H](Cc1ccccc1)C(=O)NNC(=O)[C@H](Cc1ccccc1)NC(=O)CNC(=O)[C@@H](C)NC(=O)[C@@H](N)Cc1ccc(O)cc1 [Biphalin, reference compound]
- stability of the peptide following incubation ([8]; 72 hour incubation in assay buffer, pH 7.5 at 37° C.): remained stable
- Ki (human μ opioid receptor; [12]): 3.1 nM
- Ki (human μ opioid receptor; [13]): 3.4 nM and 4.7 nM

Compound: dextran-butyraldehyde-40K-protegrin-1 (RGGRLCYCRRRFCVCVGR-NH2; cysteine pairing not given here; also: dextran-butyraldehyde 40K conjugate; UniProt P32194 131-148, looked up) [Dextran-PG1]
- hemolytic effect (rat red blood cells [1]): almost eliminated

Compound: (SBC-30K)2-biphalin
- stability of the conjugate ([8]; purification from the reaction mixture, even at acidic pH values): instability

Compound: CC(C)C[C@H](NC(=O)CNC(=O)[C@H](Cc1ccccc1)NC(=O)[C@H](CO)NC(=O)[C@H](CC(N)=O)NC(=O)[C@H](Cc1c[nH]c2ccccc12)NC(=O)[C@H](CC(N)=O)NC(=O)[C@H](Cc1ccc(O)cc1)NC(=O)[C@H](CC(N)=O)NC(=O)[C@@H]1CCCN1C(=O)[C@@H](N)CC(C)C)C(=O)N[C@@H](CCCNC(=N)N)C(=O)N[C@@H](Cc1ccccc1)C(N)=O [KP13, Kisspeptin-13]
- pEC50 ([9]; agonist activation at GPR54): 7.96
- Fold change compared to metastin [9]: 1
